Data: patent US20040214256

B1: endothelin-converting enzyme (ECE) (protein)
chain: MMSTYKRATLDEEDLVDSLSEGDAYPNGLQVNFHSPRSGQRCWAARTQVEKRLVVLVVLLAAGLVACLAALGIQYQTRSPSVCLSEACVSVTSSILSSMDPTVDPCHDFFSYACGGWIKANPVPDGHSRWGTFSNLWEHNQAIIKHLLENSTASVSEAERKAQVYYRACMNETRIEELRAKPLMELIERLGGWNITGPWAKDNFQDTLQVVTAHYRTSPFFSVYVSADSKNSNSNVIQVDQSGLGLPSRDYYLNKTENEKVLTGYLNYMVQLGKLLGGGDEEAIRPQMQQILDFETALANITIPQEKRRDEELIYHKVTAAELQTLAPAINWLPFLNTIFYPVEINESEPIVVYDKEYLEQISTLINTTDRCLLNNYMIWNLVRKTSSFLDQRFQDADEKFMEVMYGTKKTCLPRWKFCVSDTENNLGFALGPMFVKATFAEDSKSIATEIILEIKKAFEESLSTLKWMDEETRKSAKEKADAIYNMIGYPNFIMDPKELDKVFNDYTAVPDLYFENAMRFFNFSWRVTADQLRKAPNRDQWSMTPPMVNAYYSPTKNEIVFPAGILQAPFYTRSSPKALNFGGIGVVVGHELTHAFDDQGREYDKDGNLRPWWKNSSVEAFKRQTECMVEQYSNYSVNGEPVNGRHTLGENIADNGGLKAAYRAYQNWVKKNGAEHSLPTLGLTNNQLFFLGFAQVWCSVRTPESSHEGLITDPHSPSRFRVIGSLSNSKEFSEHFRCPPGSPMNPPHKCEVW

What was measured:
[1] = tested on: T1, Compound 1s, Ac-Ile-Ile-PyA-pNF-Asn-Thr-Pro-Glu-His-Val-Val-Pro-Tyr-Gly-Leu-Gly-Ser-COOH
T1 sequence: IIXXNTPEHVVPYGLGS

[2] = tested on: T2, peptide 3s, Ac-Ser-Gly-PyA-Lys-Ala-Phe-Ala-pNF-Gly-Lys NH2
T2 sequence: SGXKAFAXGK

[3] = tested on: T3, Compound 2s, Ac-Arg-Pro-Lys-Pro-Gln-Gln-PyA-pNF-Gly-Leu-Met-NH2
T3 sequence: RPKPQQXXGLM

[4] = target: T4, peptide 3s, Ac-Ser-Gly-PyA-Lys-Ala-Phe-Ala-pNF-Gly-Lys NH2
T4 chain: SGXKAFAXGK

[5] = target: T5, Compound 1s, Ac-Ile-Ile-PyA-pNF-Asn-Thr-Pro-Glu-His-Val-Val-Pro-Tyr-Gly-Leu-Gly-Ser-COOH
T5 chain: IIXXNTPEHVVPYGLGS

Molecule	cleavage by HPLC after 2 h at 37° C. [1]	cleavage by HPLC after 2 h at 37° C. [2]	cleavage by HPLC after 2 h at 37° C. [3]	cleavage products by HPLC [4]	Km (fluorimetric cleavage assay, ENZFITTER) [5]	cleavage products by HPLC [5]
angiotensin-converting enzyme (ACE)	no cleavage is observed by HPLC after incubation for 2 h at 37 °C	no cleavage is observed by HPLC after incubation for 2 h at 37 °C	no cleavage is observed by HPLC after incubation for 2 h at 37 °C			
neprilysin (NEP)	no cleavage is observed by HPLC after incubation for 2 h at 37 °C	no cleavage is observed by HPLC after incubation for 2 h at 37 °C	no cleavage is observed by HPLC after incubation for 2 h at 37 °C			
B1				produce only two metabolites, as shown by analysis of the reaction by HPLC, corresponding to the single cleavage at the PyA-pNF peptide bond	1s, Km=22.1±0.9 µM	In all cases, a single cleavage site at the L.PyA-Lp.NF dipeptide was observed, generating only two metabolites
